B1: GS2680 (nucleic acid)
sense: UACUAACAAACUGUCCACCAAAAGUAUAUAUAAUUCCUGCAACUGAGGGAGUAGAUCGCUUGCAAAUAAAAUCAAAAUCUAGCAUUCCUUGAACAGCUCUAGGCUGAAGACCAUAGACGAAACAUCUUGUUUUAUCAUGGAAGAGUGUAUGAGUUGCGUGAGGGCUCAAUGGGCGGCUAGGAGCAGCAAACCGACAGAUGUUAUCAUUGGCUGAUUGCCCAACUUUCGUAGUAUCAUUUGGAGUAGCUGAUGGCAUUUUAAAAUAUUACAAGGUCACAGAGUGUAAUUUUGGGCCUGAUUUCUUCUGUAGAGAUGACUCAAGUAGUAAUAUUUAUCUCUUUCAAUGGUGUAGUAUAUUAAUAGUAUACUCGGGAGAGAAAAUGAUGUGAUAAAAAUUA
antisense: UAAUUUUUAUCACAUCAUUUUCUCUCCCGAGUAUACUAUUAAUAUACUACACCAUUGAAAGAGAUAAAUAUUACUACUUGAGUCAUCUCUACAGAAGAAAUCAGGCCCAAAAUUACACUCUGUGACCUUGUAAUAUUUUAAAAUGCCAUCAGCUACUCCAAAUGAUACUACGAAAGUUGGGCAAUCAGCCAAUGAUAACAUCUGUCGGUUUGCUGCUCCUAGCCGCCCAUUGAGCCCUCACGCAACUCAUACACUCUUCCAUGAUAAAACAAGAUGUUUCGUCUAUGGUCUUCAGCCUAGAGCUGUUCAAGGAAUGCUAGAUUUUGAUUUUAUUUGCAAGCGAUCUACUCCCUCAGUUGCAGGAAUUAUAUAUACUUUUGGUGGACAGUUUGUUAGUA
B2: GS2799 (nucleic acid)
sense: UAGCAACGGGACGUCCACUUUGUACUCUUACAGCUUCACGUGUAUUAUCAAUCACUGAUUGAUGGUACUCAUGAGAGCCAUGAGAAAAAUUCAUACGGACAACAUUCAGACCAGCUCUUCGAAGUCCAUUUAAGGCCUCGACAUUGUUAGUUUUGGGGCCAAUAGUACAGAUAAUCGAGGUUCGACGAUAAUUCUUAGAGGUGGCAUACUCAGUGUCAAGUUGUGAUAGCCAUUCAAUGCGAGUAGAGCUGGUUAGGUGAUUCAUAGCUGAAACCAUAUUUUGAUCUAAUGAGAACUUUUAUUUGAUGUGAACGUAAAUAGUUGAGGAUGUGUAAAGUUGAGGAGAGAGUUGGCCAAAGAUACUCUUUGAGGGUAGCAAAUUUCGUUUAUCUUAUUAU
antisense: AUAAUAAGAUAAACGAAAUUUGCUACCCUCAAAGAGUAUCUUUGGCCAACUCUCUCCUCAACUUUACACAUCCUCAACUAUUUACGUUCACAUCAAAUAAAAGUUCUCAUUAGAUCAAAAUAUGGUUUCAGCUAUGAAUCACCUAACCAGCUCUACUCGCAUUGAAUGGCUAUCACAACUUGACACUGAGUAUGCCACCUCUAAGAAUUAUCGUCGAACCUCGAUUAUCUGUACUAUUGGCCCCAAAACUAACAAUGUCGAGGCCUUAAAUGGACUUCGAAGAGCUGGUCUGAAUGUUGUCCGUAUGAAUUUUUCUCAUGGCUCUCAUGAGUACCAUCAAUCAGUGAUUGAUAAUACACGUGAAGCUGUAAGAGUACAAAGUGGACGUCCCGUUGCUA
B3: GS2684 (nucleic acid)
sense: UUGGCAGCUCGCCAUUUCUUAUCAAAGAGAUACCUAAAUGAUAAACUUAAAAUACUUGCAGUGAAUAUAUCUGCUAGAGUAAGACGCUCUCCAACUAAGAAUGUGUUGUUUUGAAGAGUAUCCUCAAAAAUUUGAGCAUAAUCGAUUGUUUUUUUGACACCUUCAUCAUAAACCUUUUUAUUGUAUGCGACAAUACCAAAAAAAGGAUAAAGCCAGCUGGCAUAGCAGUUACUAAUAUCUUGAUUGACAAAAGACAUCCACUUUAAAAUAGAGGCAUAAGUCUAAUUAUGAAAGUCCACACGGAGUGUUAAGACAGGGACUGUUUUAUGUCAAGGAAAAUUUUUCAACUGAGAGAGCUUAGCAUACUCCUGCUUGGUUUU
antisense: AAAACCAAGCAGGAGUAUGCUAAGCUCUCUCAGUUGAAAAAUUUUCCUUGACAUAAAACAGUCCCUGUCUUAACACUCCGUGUGGACUUUCAUAAUUAGACUUAUGCCUCUAUUUUAAAGUGGAUGUCUUUUGUCAAUCAAGAUAUUAGUAACUGCUAUGCCAGCUGGCUUUAUCCUUUUUUUGGUAUUGUCGCAUACAAUAAAAAGGUUUAUGAUGAAGGUGUCAAAAAAACAAUCGAUUAUGCUCAAAUUUUUGAGGAUACUCUUCAAAACAACACAUUCUUAGUUGGAGAGCGUCUUACUCUAGCAGAUAUAUUCACUGCAAGUAUUUUAAGUUUAUCAUUUAGGUAUCUCUUUGAUAAGAAAUGGCGAGCUGCCAA
B4: GS3295 (nucleic acid)
sense: UCAUCUUUUGCCGCUCUUUAUCAUGAUCUUGAUAUGGGAUUUACACCGAUCAACUUUACAUUUUACUGGGCACCUCUACCUUGGAAUCGUGCUCGUGAUCAUGCCCAAAGAACUGUUGCUAGGACGAACCUCGCUCCAAGGGGGCUUUAUGGGAAUCUGCCUCGUAGUAUAAAGUUCUGCAGCUGGCUCUACGGAUUGCAUCUACAACAACUACAACAUCAUCAUCAUCAUCAUCUUCAUCUUCAUCUUC
antisense: GAAGAUGAAGAUGAAGAUGAUGAUGAUGAUGAUGUUGUAGUUGUUGUAGAUGCAAUCCGUAGAGCCAGCUGCAGAACUUUAUACUACGAGGCAGAUUCCCAUAAAGCCCCCUUGGAGCGAGGUUCGUCCUAGCAACAGUUCUUUGGGCAUGAUCACGAGCACGAUUCCAAGGUAGAGGUGCCCAGUAAAAUGUAAAGUUGAUCGGUGUAAAUCCCAUAUCAAGAUCAUGAUAAAGAGCGGCAAAAGAUGA
B5: GS2732 (nucleic acid)
sense: GGAAAAUGUGAGUUGCCGCCAUCGAUAAUUAUGUCUCCUUGAUCGAGGAAUGGCAAUAAUGUUUCAAUAAAAUCAUCAACAGGCUUUCCAGCCAUGACAAGCAGCAUAAUACGACGUGGUUUUUUUAGUUUACUCACAAAUUCCUGGAUAGAACGAGCACCUUCAAUAGAUUUCCCUUUUGCCUCAUUUUCAAGAAAGUGGUCUACCUUAGCUACAGUUCGAUUAUAUGCAAUAACAUUAAAUCCAUGGUCUGCAGCAUUCAGAAUUAGAUUCUGCCCCAUGACAGCUAGACCGAUAAGGCCAAAGUCUCCUGUAGCAGCACUCAUAUUUUUUUGAUUAUAAAUUUAGAAGCCCAAAGACUGGAGCUUAUAUGGAGAACAGAGAUUACACAGAUGGGA
antisense: UCCCAUCUGUGUAAUCUCUGUUCUCCAUAUAAGCUCCAGUCUUUGGGCUUCUAAAUUUAUAAUCAAAAAAAUAUGAGUGCUGCUACAGGAGACUUUGGCCUUAUCGGUCUAGCUGUCAUGGGGCAGAAUCUAAUUCUGAAUGCUGCAGACCAUGGAUUUAAUGUUAUUGCAUAUAAUCGAACUGUAGCUAAGGUAGACCACUUUCUUGAAAAUGAGGCAAAAGGGAAAUCUAUUGAAGGUGCUCGUUCUAUCCAGGAAUUUGUGAGUAAACUAAAAAAACCACGUCGUAUUAUGCUGCUUGUCAUGGCUGGAAAGCCUGUUGAUGAUUUUAUUGAAACAUUAUUGCCAUUCCUCGAUCAAGGAGACAUAAUUAUCGAUGGCGGCAACUCACAUUUUCC
B6: GS2804 (nucleic acid)
sense: UUUUAAAGCUAUGUAUCCUCAAGUAACAGAAUUAGAAAACCUAGUUUUCAAAUUGAGAUUUUGGAAAAAAUCUAACAACCACUUCACUUGGCUCCAUCAAUUUUGGAAAUAUAACUUAGGAGAUCUAAAACACGGCGAGAGUAACCCCAUUCAUUAUCAUACCAUGAUACGAGUUUGACAAAGUUGUCAUUGAGCGAGAUUCCAGCUUUCGCGUCGAAAAUGGAUGAGUGAUUAUCACCGAUUAAAUCAGUUGAAACGAUGUCAUCCUCAGUAUAAGAAAGUAUGCCUUUUAAUUCACCAUUGGCAGCCUCCUUGAUAGCAGCCUUAAUUUGGUCAUAAGUAGCACCCUUUCCAAUGCGGCAUGUUAAGUCAACAACGGAAACAUUAGCAGUGGGUA
antisense: UACCCACUGCUAAUGUUUCCGUUGUUGACUUAACAUGCCGCAUUGGAAAGGGUGCUACUUAUGACCAAAUUAAGGCUGCUAUCAAGGAGGCUGCCAAUGGUGAAUUAAAAGGCAUACUUUCUUAUACUGAGGAUGACAUCGUUUCAACUGAUUUAAUCGGUGAUAAUCACUCAUCCAUUUUCGACGCGAAAGCUGGAAUCUCGCUCAAUGACAACUUUGUCAAACUCGUAUCAUGGUAUGAUAAUGAAUGGGGUUACUCUCGCCGUGUUUUAGAUCUCCUAAGUUAUAUUUCCAAAAUUGAUGGAGCCAAGUGAAGUGGUUGUUAGAUUUUUUCCAAAAUCUCAAUUUGAAAACUAGGUUUUCUAAUUCUGUUACUUGAGGAUACAUAGCUUUAAAA
B7: GS2685 (nucleic acid)
sense: GUCUCAUAUCACGAACAGCGAAGCGACCUAAUGGAGGAUAACUUGAAAAUGACUCAACACACAUAGGUUUAGAUGGAAUCAUUUUAACAAUUGCUGCGUCACCAGAUUUAACAAAUUUUGGAGUUGCCUCAAUAGACUUUCCAGUACGACGAUCAAUUUUUUCAAGAAGUUCUGCAAAUUUGCAAGCAAUGUGAGCCGUAUGACAAUCAAGUACAGGUGCGUAACCAGCUCCAAUUUGACCUGGGUGGUUUAACACGAUAACUUGUGCGGUAAAAUGCUCGGCACCCUUAGGGGGGUCAUUCUUAGAAUCACCACAAACAUUACCACGACGGAUUUCUUUCACCGAAACGUUCUUUACAUUGAAGCCAA
antisense: UUGGCUUCAAUGUAAAGAACGUUUCGGUGAAAGAAAUCCGUCGUGGUAAUGUUUGUGGUGAUUCUAAGAAUGACCCCCCUAAGGGUGCCGAGCAUUUUACCGCACAAGUUAUCGUGUUAAACCACCCAGGUCAAAUUGGAGCUGGUUACGCACCUGUACUUGAUUGUCAUACGGCUCACAUUGCUUGCAAAUUUGCAGAACUUCUUGAAAAAAUUGAUCGUCGUACUGGAAAGUCUAUUGAGGCAACUCCAAAAUUUGUUAAAUCUGGUGACGCAGCAAUUGUUAAAAUGAUUCCAUCUAAACCUAUGUGUGUUGAGUCAUUUUCAAGUUAUCCUCCAUUAGGUCGCUUCGCUGUUCGUGAUAUGAGAC
B8: ES49: dsRNA trigger SEQ ID NO 112; gene target Hypotethical effector (nucleic acid)
DNA: ATGCGTTTCATCATAGGAGCTGTCGTCTCTTCACTCATTTTGTCGCCAATTTCAGTGCTTTCTATGGCGGCTAGTAATGACTCTACCGAAGCTGCAGCGCATATCATAAATGATTCTATACTAGAAGATGTTTCGAACGTTGCAGATTTCGACTGGTCTTCAACGTCATATCAAGGCCTAGAGAAAAGATTTTGTTTCAGACGAGGATGCAAGGAAGAAAAGCTCAAGAGGACATCAGGTTTCCAATGCAAAAAGAAGTACATCAGCTCGGAGAAAATTGAGAGAGCAAAAGCCGCTGGCTGTCCGGAAATCAAAAAAAATAAGCAGCGATCCGCTTTTCCTTCTCTCTACACTGCATCCGACTTTGCTGTTCCAGGTCCTTACCTAGAATGGCCGATCAGCCGCAATGGAAGGTTTTGGAACAAATTGAGTAAGGGCAAGTACCGTATCATCATGACCAAAAGCTGCAAGGTGG

Test system: E. necator
Test: Leaf disc assay, dry inoculum (settling tower), decrease in disease severity / hyphal growth (Example 2)
Conditions: decrease in disease severity (hyphal growth) relative to untreated control, value ± SE; for % decrease =/− SE TP1: time point 1 (untreated control hyphal growth ≥50%); for % decrease =/− SE TP2: time point 2

Row | Molecule | % decrease =/− SE TP1 | % decrease =/− SE TP2
1 | B1 | 12 ± 4% | 11 ± 5%
2 | B2 | 31 ± 5% | 20 ± 8%
3 | B3 | 31 ± 4% | 18 ± 4%
4 | B4 | 33 ± 6% | 26 ± 8%
5 | B5 |  | 18 ± 10%
6 | B6 | 32 ± 5% | 10 ± 8%
7 | B7 | 23 ± 0% | 15 ± 0%
8 | B8 | 9 ± 1% | 6 ± 3%

Source: US12077763B2, “RNA-based control of powdery mildew” (Greenlight Biosciences, Inc., priority 2021, dated 2024)
